Tests used:
[1] = tested on: AGT receptor on CRL-7548 placental cells; test: Competitive displacement study (unlabeled AGT added at 8 h); type: binding, human
Method: (§1) Cell Culture: CRL-7548 placental cells obtained from American Type Culture Collection were cultured in 89% Dulbecco's modification of Eagle medium (DEME) (Cellgro, Herndon, Va.), 10% fetal bovine serum (FBS) (Sigma, St. Louis, Mo.), 1% penicillin-streptomycin (5,000 U/ml and 5,000 μg/ml) (Cellgro) in a humidified atmosphere of 5.0% CO2 and […] at 37° C. The cells were passed in FBS-free DEME before experimentation, seeded in 35 mm diameter plastic wells and cultured for two days to reach about 80-90% confluence.
(§2) Purified AGT was labeled with ^125I using iodobeads Pierce, Rockford, Ill.), 5 mCi/0.5 mg AGT in 0.1 mol/L sodium phosphate buffer, pH 6.0. The bound isotope was separated from the free isotope by gel filtration on Sephadex G-25.
(§3) Labeled AGT, 3 μg, was added to each well containing 1 ml DEME and 2-3×10^4 cells. The cells were harvested at 5 min, and 2, 4, 8, 16 and 24 h, washed five times with DEME, lysed in a buffer containing 0.1 mol/L Tris, 2 mmol/L EDTA, 1% Triton-X 100, 1 μmol/L DTT, pH 7.8, and the radioactivity of the whole lysate measured. Each experiment contained two duplicates and the reported values are the mean of two experiments. The results are presented graphically in FIG. 1
[…] The cells were harvested at 5 min and at 2 intervals through 18 h.

CRL-7458 fibroblasts = test: AGT uptake in other placental cell lines; type: cell-based; conditions: fibroblasts from human placenta at 37 weeks gestation (CRL-7458)
Excerpt: (§4) The cells used in Examples 1-4 are fibroblasts originally derived from a human placenta obtained at 5 months gestation. Binding studies were also done with fibroblasts derived from a human placenta obtained at 37 weeks gestation (CRL-7458) and with fibroblasts derived from a human placenta at 40 weeks gestation (CRL-7459). These cells also took up AGT.

CRL-7459 fibroblasts = test: AGT uptake in other placental cell lines; type: cell-based; conditions: fibroblasts from human placenta at 40 weeks gestation (CRL-7459)
Excerpt: as §4

[2] = tested on: AGT receptor on CRL-7548 placental cells; test: Competitive binding study (unlabeled AGT added at zero time); design: species or system human; conditions: prior addition of 100-fold excess of unlabeled AGT, FIG. 2
Method: as §1, §2, §3
This Example was carried out as described in Example 1, except that a 100-fold excess of unlabeled AGT was added at zero time. The cells were harvested at 5 min, and 4, 8 and 24 h. […]

CRL-7548 placental cells = test: Acid wash study (surface-bound versus internalized AGT); type: cell-based, human; conditions: for bound AGT removed from the cells by acid wash: 0.2 mol/L acetic acid, 0.5 mol/L NaCl, pH 2.5, 4° C., at 8 h
Method: as §1, §2, §3
This Example was carried out as described in Example 1. At 8 h, the cells in one set of duplicate wells were washed five times with DEME. Another set of duplicate samples were incubated with 0.2 mol/L acetic acid, 0.5 mol/L NaCl, pH 2.5, on ice (4° C.) for 6 min, and then washed five times with the acid wash. The control duplicates and the acid-washed duplicates were lysed and radioactivity was measured.

[3] = tested on: AGT receptor on CRL-7548 placental cells; test: AGT binding: 125I-labeled AGT bound by placental-derived cells; design: species or system human; conditions: 3 μg labeled AGT per well, 2-3×10^4 CRL-7548 cells, FIG. 1
Method: as §1
The AGT used in the Examples was purified from human plasma as described in Tewksbury (1983) Fed. Proc. 42:2724-2728; and Tewksbury et al. (1981) Biochem. Biophys. Res. Commun. 99:1311-1315. The specific Ang I content was 20 μg Ang I/mg protein. The theoretical value is 21 μg Ang I/mg protein.
as §2
as §3, with “Each experiment contained two duplicates and the reported values are the mean of two experiments. The results are presented graphically in FIG. 1” left out

[4] = from displacement by unlabeled AGT

Row | Molecule | bound 125I-AGT displaced ([1]; excess of unlabeled AGT added, FIG. 3) [%] | share of AGT bound to an AGT-specific receptor [1, 4] [%] | share of total binding attributed to nonspecific binding [1, 4] | AGT uptake (CRL-7458 fibroblasts) | AGT uptake (CRL-7459 fibroblasts) | decrease in maximal binding of 125I-AGT [2] [%] | bound AGT removed from the cells by acid wash (CRL-7548 placental cells) [%] | bound AGT internalized by the cells (CRL-7548 placental cells; inferred from acid wash at 8 h) | time to saturation of binding by placental-derived cells [3] [h]
1 | angiotensinogen (protein, UniProt P01019 25-476, looked up, AGT purified from human plasma; specific Ang I content 20 μg Ang I/mg protein) Angiotensinogen: DRVYIHPFHLVIHNESTCEQLAKANAGKPKDPTFIPAPIQAKTSPVDEKALQDQLVLVAAKLDTEDKLRAAMVGMLANFLGFRIYGMHSELWGVVHGATVLSPTAVFGTLASLYLGALDHTADRLQAILGVPWKDKNCTSRLDAHKVLSALQAVQGLLVAQGRADSQAQLLLSTVVGVFTAPGLHLKQPFVQGLALYTPVVLPRSLDFTELDVAAEKIDRFMQAVTGWKTGCSLMGASVDSTLAFNTYVHFQGKMKGFSLLAEPQEFWVDNSTSVSVPMLSGMGTFQHWSDIQDNFSVTQVPFTESACLLLIQPHYASDLDKVEGLTFQQNSLNWMKKLSPRTIHLTMPQLVLQGSYDLQDLLAQAELPAILHTELNLQKLSNDRIRVGEVLNSIFFELEADEREPTESTQQLNKPEVLEVTLNRPFLFAVYDQSATALHFLGRVANPLSTA | 70 | 70 | approximately 30% | took up AGT | took up AGT | 54 | 46 | about half | –
2 | ^125I-AGT: Purified AGT labeled with ^125I using iodobeads (protein, UniProt P01019 25-476, looked up, 125I label, Purified AGT labeled with ^125I using iodobeads) Angiotensinogen: DRVYIHPFHLVIHNESTCEQLAKANAGKPKDPTFIPAPIQAKTSPVDEKALQDQLVLVAAKLDTEDKLRAAMVGMLANFLGFRIYGMHSELWGVVHGATVLSPTAVFGTLASLYLGALDHTADRLQAILGVPWKDKNCTSRLDAHKVLSALQAVQGLLVAQGRADSQAQLLLSTVVGVFTAPGLHLKQPFVQGLALYTPVVLPRSLDFTELDVAAEKIDRFMQAVTGWKTGCSLMGASVDSTLAFNTYVHFQGKMKGFSLLAEPQEFWVDNSTSVSVPMLSGMGTFQHWSDIQDNFSVTQVPFTESACLLLIQPHYASDLDKVEGLTFQQNSLNWMKKLSPRTIHLTMPQLVLQGSYDLQDLLAQAELPAILHTELNLQKLSNDRIRVGEVLNSIFFELEADEREPTESTQQLNKPEVLEVTLNRPFLFAVYDQSATALHFLGRVANPLSTA | – | – | – | – | – | – | 46 | – | 2 to 4

Reference: patent US7250265B2, “Method of detecting and evaluating angiotensinogen receptor-modulating compounds using placental cells” (Marshfield Clinic, priority 2001, dated 2007)
